Test results reported in patent US20240041987A1, “NOVEL BIOACTIVE PEPTIDE COMBINATIONS AND USES THEREOF” (COLZYX AB, priority 2020, published 2024).
Read-outs that look alike come from different tables or passages of the source.

Columns and labels:
[1] = tested on: microorganisms; settings: cited from earlier work
[2] = tested on: wound healing; settings: cited from earlier work
[3] = 25 ± 2° C./60% RH ± 5%, 1 month
[4] = 25 ± 2° C./60% RH ± 5%, 3 months

For “GVRPDGFAHIRDFVSRIVRRLNIGPSKV (GVR28) [peptide derived from collagen VI alpha-3 chain]”, the Appearance (25 ± 2° C./60% RH ± 5%, 0 D) was “White powder”, the “Identity (RP-HPLC)” value (25 ± 2° C./60% RH ± 5%, 0 D) was “Retention Time Conforms” and the “Purity (RP-HPLC)” value (25 ± 2° C./60% RH ± 5%, 0 D) was 98.1%. For the same sequence, the “Related Impurities (by RRT), Specified Impurity %: RRT = 0.80*, RRT = 0.81* Total” value (25 ± 2° C./60% RH ± 5%, 0 D) was 0.07%, the “Related Impurities (by RRT), Specified Impurity %: RRT = 0.96*” value (25 ± 2° C./60% RH ± 5%, 0 D) was 0.38% and the “Related Impurities (by RRT), Specified Impurity %: RRT = 1.04” value (25 ± 2° C./60% RH ± 5%, 0 D) was 0.56%. For the same sequence, the “Related Impurities (by RRT), Specified Impurity %: RRT = 1.13*” value (25 ± 2° C./60% RH ± 5%, 0 D) was 0.22%, the “Unspecified Impurity % (Report ≥0.10%): RRT = 0.94” value (25 ± 2° C./60% RH ± 5%, 0 D) was 0.15% and the “Unspecified Impurity % (Report ≥0.10%): RRT = 1.09” value (25 ± 2° C./60% RH ± 5%, 0 D) was 0.32%. For the same sequence, the “Unspecified Impurity % ≤0.50%” value (25 ± 2° C./60% RH ± 5%, 0 D) was “Conforms”, the “Water Content (KF)” value (25 ± 2° C./60% RH ± 5%, 0 D) was 4.2% and the Appearance [3] was “White powder”. For the same sequence, the “Identity (RP-HPLC)” value [3] was “Retention Time Conforms”, the “Purity (RP-HPLC)” value [3] was 97.7% and the “Related Impurities (by RRT), Specified Impurity %: RRT = 0.82*” value [3] was 0.07%. The “Related Impurities (by RRT), Specified Impurity %: RRT = 0.97” value [3] was 0.40%, the “Related Impurities (by RRT), Specified Impurity %: RRT = 1.04” value [3] was 0.57% and the “Related Impurities (by RRT), Specified Impurity %: RRT = 1.12” value [3] was 0.49%. The “Unspecified Impurity % (Report ≥0.10%): RRT = 0.95” value (from here on “Unspecified Impurity % … RRT = 0.95”) [3] was 0.16%, the “Unspecified Impurity % (Report ≥0.10%): RRT = 1.08” value (from here on “Unspecified Impurity % … RRT = 1.08”) [3] was 0.32% and the “Unspecified Impurity % ≤0.50%” value [3] was “Conforms”. For the same sequence, the “Water Content (KF)” value [3] was 3.9%, the Appearance [4] was “White powder” and the “Identity (RP-HPLC)” value [4] was “Retention Time Conforms”. The “Purity (RP-HPLC)” value [4] was 97.3%, the “Related Impurities (by RRT), Specified Impurity %: RRT = 0.83*” value [4] was 0.12% and the “Related Impurities (by RRT), Specified Impurity %: RRT = 0.97” value [4] was 0.41%. For the same sequence, the “Related Impurities (by RRT), Specified Impurity %: RRT = 1.04” value [4] was 0.56%, the “Related Impurities (by RRT), Specified Impurity %: RRT = 1.12” value [4] was 0.77% and the “Unspecified Impurity % … RRT = 0.95” value [4] was 0.17%. The “Unspecified Impurity % … RRT = 1.08” value [4] was 0.32%, the “Unspecified Impurity % ≤0.50%” value [4] was “conforms” and the “Water Content (KF)” value [4] was 3.9%. For the same sequence, the “change in purity during the initial 3 months” value (stored at 25° C.) was “slight decrease in purity”, the Appearance (−20 ± 5° C., 0 D) was “White powder” and the “Identity (RP-HPLC)” value (−20 ± 5° C., 0 D) was “Retention Time Conforms”. The “Purity (RP-HPLC)” value (−20 ± 5° C., 0 D) was 98.10%, the “Related Impurities (by RRT), Specified Impurity %: RRT = 0.80*, RRT = 0.81* Total” value (−20 ± 5° C., 0 D) was 0.07% and the “Related Impurities (by RRT), Specified Impurity %: RRT = 0.96*” value (−20 ± 5° C., 0 D) was 0.38%. The “Related Impurities (by RRT), Specified Impurity %: RRT = 1.04” value (−20 ± 5° C., 0 D) was 0.56%, the “Related Impurities (by RRT), Specified Impurity %: RRT = 1.13*” value (−20 ± 5° C., 0 D) was 0.22% and the “Unspecified Impurity % (Report ≥0.10%): RRT = 0.94” value (−20 ± 5° C., 0 D) was 0.15%. The “Unspecified Impurity % (Report ≥0.10%): RRT = 1.09” value (−20 ± 5° C., 0 D) was 0.32%, the “Unspecified Impurity % ≤0.50%” value (−20 ± 5° C., 0 D) was “conforms” and the “Water Content (KF)” value (−20 ± 5° C., 0 D) was 4.2%. The Appearance (−20 ± 5° C., 3 months) was “White powder”, the “Identity (RP-HPLC)” value (−20 ± 5° C., 3 months) was “Retention Time Conforms” and the “Purity (RP-HPLC)” value (−20 ± 5° C., 3 months) was 98.10%. For the same sequence, the “Related Impurities (by RRT), Specified Impurity %: RRT = 0.83*” value (−20 ± 5° C., 3 months) was 0.04%, the “Related Impurities (by RRT), Specified Impurity %: RRT = 0.97” value (−20 ± 5° C., 3 months) was 0.38% and the “Related Impurities (by RRT), Specified Impurity %: RRT = 1.04” value (−20 ± 5° C., 3 months) was 0.54%. For the same sequence, the “Related Impurities (by RRT), Specified Impurity %: RRT = 1.12” value (−20 ± 5° C., 3 months) was 0.20%, the “Unspecified Impurity % … RRT = 0.95” value (−20 ± 5° C., 3 months) was 0.17% and the “Unspecified Impurity % … RRT = 1.08” value (−20 ± 5° C., 3 months) was 0.31%. The “Unspecified Impurity % ≤0.50%” value (−20 ± 5° C., 3 months) was “conforms”, the “Water Content (KF)” value (−20 ± 5° C., 3 months) was 1.8% and the “Antimicrobial activity?” value [1] was “Yes”. The “Wound healing activity?” value [2] was “have wound healing properties and Yes”.
